One molecule from US20240018213A1 (OHIO STATE INNOVATION FOUNDATION, published 2024) can be followed below.

The target of experiment [1] is T1, mNotch1ECD-Fc (mouse, UniProt Q01705 19-1725).
T1 construct: extracellular domain; Immobilized on the SPR chip; also called mouse full length notch extracellular domain; not shown: Fc part
Nature of the experiment: SPR (open SPR), mNotch1ECD-Fc immobilized, Tan 6 injected at 2.2, 0.45, 0.22, 0.11 and 0 µM; apparent KD. The method, then: (§1) FIG. 25. Open surface plasmon resonance (SPR) binding experiments of DLL1 Tandem 6× against immobilized mouse full length notch extracellular domain (Top) and BSA negative control (bottom). DLL1 Tandem 6× was injected at concentrations of 2.2 μM, 0.45 μM, 0.22 μM, 0.11 μM, and 0 μM (HBS buffer only). Signal to noise of these binding experiments were 3 to 1.
(§2) The signal:noise of binding to Notch1 versus BSA is about 3:1 at the same concentrations.

Experiment [2] has as its target T1, mNotch1ECD-Fc. Description: SPR, signal on immobilized mNotch1ECD-Fc against immobilized BSA negative control at the same Tan 6 concentrations. As for the experimental part: as §1, §2
On the technique in general: Surface plasmon resonance follows binding to a sensor surface in real time, without labels.

T1 sequence (Q01705 19-1725): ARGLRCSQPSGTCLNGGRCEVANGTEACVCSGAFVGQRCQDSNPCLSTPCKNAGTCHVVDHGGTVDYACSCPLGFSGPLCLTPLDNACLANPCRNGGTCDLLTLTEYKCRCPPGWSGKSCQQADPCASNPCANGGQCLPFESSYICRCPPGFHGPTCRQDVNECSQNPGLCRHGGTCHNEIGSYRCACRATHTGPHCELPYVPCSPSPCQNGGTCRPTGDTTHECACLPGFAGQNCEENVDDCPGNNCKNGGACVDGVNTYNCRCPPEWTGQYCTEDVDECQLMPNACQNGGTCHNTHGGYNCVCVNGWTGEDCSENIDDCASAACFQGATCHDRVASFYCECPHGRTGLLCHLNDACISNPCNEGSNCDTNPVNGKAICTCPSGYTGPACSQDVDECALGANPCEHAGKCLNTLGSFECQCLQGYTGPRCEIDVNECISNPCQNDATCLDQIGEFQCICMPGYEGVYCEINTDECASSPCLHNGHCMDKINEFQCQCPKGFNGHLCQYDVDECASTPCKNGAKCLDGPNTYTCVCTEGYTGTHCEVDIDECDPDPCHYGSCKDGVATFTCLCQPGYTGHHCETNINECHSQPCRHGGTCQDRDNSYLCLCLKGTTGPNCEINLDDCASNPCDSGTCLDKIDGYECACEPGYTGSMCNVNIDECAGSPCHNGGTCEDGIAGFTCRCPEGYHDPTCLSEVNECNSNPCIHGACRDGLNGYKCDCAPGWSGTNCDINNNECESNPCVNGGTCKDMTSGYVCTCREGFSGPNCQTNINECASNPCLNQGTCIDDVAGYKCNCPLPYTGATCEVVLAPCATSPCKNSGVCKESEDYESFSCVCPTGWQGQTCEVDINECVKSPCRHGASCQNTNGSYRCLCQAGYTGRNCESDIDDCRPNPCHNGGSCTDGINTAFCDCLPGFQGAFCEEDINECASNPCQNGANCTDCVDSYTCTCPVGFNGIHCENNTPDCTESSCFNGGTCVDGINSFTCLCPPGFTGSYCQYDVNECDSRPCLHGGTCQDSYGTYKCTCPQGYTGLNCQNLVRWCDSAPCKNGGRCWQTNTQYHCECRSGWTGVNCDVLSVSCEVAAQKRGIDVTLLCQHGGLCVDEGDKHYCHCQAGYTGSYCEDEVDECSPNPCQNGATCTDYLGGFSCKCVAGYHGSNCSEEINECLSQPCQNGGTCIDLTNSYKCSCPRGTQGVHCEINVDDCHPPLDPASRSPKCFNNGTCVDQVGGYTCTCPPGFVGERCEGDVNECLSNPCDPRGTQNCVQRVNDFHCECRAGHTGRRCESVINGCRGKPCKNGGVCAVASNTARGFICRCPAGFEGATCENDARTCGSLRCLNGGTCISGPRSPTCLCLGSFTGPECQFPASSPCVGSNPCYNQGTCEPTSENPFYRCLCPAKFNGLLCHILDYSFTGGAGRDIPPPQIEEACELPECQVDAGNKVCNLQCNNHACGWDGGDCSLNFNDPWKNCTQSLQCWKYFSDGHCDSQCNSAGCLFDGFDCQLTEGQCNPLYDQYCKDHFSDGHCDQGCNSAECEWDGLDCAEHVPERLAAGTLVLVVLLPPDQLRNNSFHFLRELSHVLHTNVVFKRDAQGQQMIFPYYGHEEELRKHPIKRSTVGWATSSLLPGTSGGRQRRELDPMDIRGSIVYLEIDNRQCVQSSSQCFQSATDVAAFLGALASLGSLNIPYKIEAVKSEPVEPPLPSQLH

B1: MuDLL1.DSL-EGF12.Tan 6 (NL 99) (ligand)
chain: MAAHHHHHHGGENLYFQGFVCDEHYYGEGCSVFCRPRDDAFGHFTCGDRGEKMCDPGWKGQYCTDPICLPGCDDQHGYCDKPGECKCRVGWQGRYCDECIRYPGCLHGTCQQPWQCNCQEGWGGLFCNQGSSGSSGFVCDEHYYGEGCSVFCRPRDDAFGHFTCGDRGEKMCDPGWKGQYCTDPICLPGCDDQHGYCDKPGECKCRVGWQGRYCDECIRYPGCLHGTCQQPWQCNCQEGWGGLFCNQGSSGSSGFVCDEHYYGEGCSVFCRPRDDAFGHFTCGDRGEKMCDPGWKGQYCTDPICLPGCDDQHGYCDKPGECKCRVGWQGRYCDECIRYPGCLHGTCQQPWQCNCQEGWGGLFCNQGSSGSSGFVCDEHYYGEGCSVFCRPRDDAFGHFTCGDRGEKMCDPGWKGQYCTDPICLPGCDDQHGYCDKPGECKCRVGWQGRYCDECIRYPGCLHGTCQQPWQCNCQEGWGGLFCNQGSSGSSGFVCDEHYYGEGCSVFCRPRDDAFGHFTCGDRGEKMCDPGWKGQYCTDPICLPGCDDQHGYCDKPGECKCRVGWQGRYCDECIRYPGCLHGTCQQPWQCNCQEGWGGLFCNQGSSGSSGFVCDEHYYGEGCSVFCRPRDDAFGHFTCGDRGEKMCDPGWKGQYCTDPICLPGCDDQHGYCDKPGECKCRVGWQGRYCDECIRYPGCLHGTCQQPWQCNCQEGWGGLFCNQ
notes: also called DLL1 Tandem 6×; hexamer
Regarding B1, in the experiment with mNotch1ECD-Fc [1], the Kd was 1500 nM. Further, the “signal:noise of binding to Notch1 versus BSA” value in the experiment with mNotch1ECD-Fc [2] was ~3 ratio (Notch1 : BSA).
